Data: article PMC2655723

Columns and labels:
[1] = target: Full-length HIV-1 YU2 envelope glycoproteins (HIV-1, strain YU2) (UniProt P35961)
[2] = target: HIV-1 AD8 envelope glycoproteins (HIV-1, strain AD8)

For “Four-domain soluble CD4 (domain or fragment)”, the IC50 of sCD4 for inhibition of infection of CD4+CCR5+ Cf2Th cells by recombinant HIV-1(YU2), luciferase activity [1] was 0.012 µM and the IC50 of sCD4 for inhibition of infection of CD4+CCR5+ Cf2Th cells by recombinant HIV-1(AD8), luciferase activity [2] was 0.08 µM.
